From the domain aggregation screens of Martell et al. (2025) come the findings set out here.

The data set can be described thus: soluble fraction after stress (log2 fold change); higher = more stays soluble; pooled small domains, quantitative proteomics. The note with it: stress: 50 degC. Put shortly: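 After stress at 50°C, the amount of each protein still soluble was measured. This was done on pooled custom libraries of small protein domains, using high-throughput quantitative proteomics. The figure given is a base-two log fold change and stands for aggregation propensity, with higher values meaning more protein stays in solution.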

In the case of “HMGKPAGLIRELGNHPEDEKPVTLNNGRFGPYVKHGKVMASLTKADSPDDITFDRAIELIAIKAEKMAAKG”, the “soluble fraction (log2)” value stood at 0.184.
Consider “HMKKQLTISDGDWAGKVSSMLEDMGVINSASEFDKYLSDNGYSNVIKSGTYDVSPEDTFQELAEKIT”, for which the “soluble fraction (log2)” value worked out at 0.414.
Turning to “HMEVGVSGTVFNTDSLNVRKGPGTNFDTVTSLKRGSVVEVFEQSAVDGTVWGRIANGWVNMQYVSL”, the “soluble fraction (log2)” value was -0.093.
On to “HMNVNVSFTQLRHKAEHAIQAKNWSEARNLLTLATLMRPTHRNVARRLKAVEQRNRLFRRLLLILTHRKV”, for which the “soluble fraction (log2)” value was -0.295.
Take “HMSDVVFRINANGLNVSGLANGERVSVYDTTGKLVTTAVSTQDNGTLNLPLKQSGGIYIARTQSGVSFKFT”: the “soluble fraction (log2)” value was -0.411.
With “HMNGKPDMTPIPAGSRNNDLHAWAYGRLLNHPDNAEAIRRDLFERGQTSGLKESELETIWQSIRRQLGGD”, the “soluble fraction (log2)” value is 0.249.
For the sequence “HMTKGDRIKARREELGLTQTDLAEAISSTKQNIYKYENNIISNIPSDKVEAIAEVLKISPAYLMGWGDE”, the “soluble fraction (log2)” value was 0.0302.
As for “HMSKNIRQQFLDVLPKTFDRNQYLETAKKLSINAKTAEGYIKKFVEANLLDHPKHNHYINLKKVEEVETK”, the “soluble fraction (log2)” value worked out at 0.229.
In the case of “HMGGEPKALLFAGVETREMAEITQRLEAADIPYEIREDGGSIYVARSEVFNARMMLSADGLPS”, the “soluble fraction (log2)” value was -0.109.
Consider “HMVSVEELLSSLDPNEATVLKLLAERSSGVDELMERSGLDFSALSEAITNLELFGYIAREMDGVYSFS”, for which the “soluble fraction (log2)” value is -0.559.
In the case of “HMDALPLIQLEKEIKDFISQGQKINAIKHYRNVMDRDFGTTISLKLAKYTVDALAQNIKVDLTKGYDQ” it was -0.475; in that of “HMGMDALIGRRVFVSEEILPGDTGGRMAVDGDSWRAISVGTASNIPAGTEVRIRGHQSLVLEVEP”, -0.116.
On to “HMTELSLSEQAYQQLRRMIVRLDFAPGDVLREEALQEALGMSRTPIREALQRLAREHFVTVIPRRGMFVS”, for which the “soluble fraction (log2)” value is -2.28.
Regarding “HMIKVAANESNRSDVLEIVRLFRVRVVDVNPESLTIEATGAEGKIDALLGLLEHYGVIELVRSGAVAVT”, the “soluble fraction (log2)” value is -0.435.
On to “HMNEVETWSVQADGATGRIDKWLAEQNEWSRSQVQEWLKAGRVEVDGRVVKPNYKLSGTESIAVHIPEAV”, for which the “soluble fraction (log2)” value was -0.0928.
With “HMAQRFDLGDKLNPQSSEFEYLGTSSRTGVSTYRYKNVPTQLFFGRQIGDIVVGVRRGMITLTIYNL”, the “soluble fraction (log2)” value was -0.0451.
Then “HMKRREENLRRLALSTAERVKRKGKKEILNPMSPQERRIIHLTLQNNKEVVTHSEGEDPYRRVIISPRN”, with 0.00802; and “HMQTTPAGHELLIRYFANGNIRERGMMKDGKRNGIWIFYDESGMEIRKTKYKMGKIISDYDLN”, with -1.07.
For “HMEPESTMIEISETLTNERLDRYLATKLPNVSRGGIQRLLREGNILVNGKKAKPTQHPVAGQKIEITWPNP”, the “soluble fraction (log2)” value was 0.0857.
In the case of “HMFDDLSTNLRDLAHNYIEKYSPSKQQLKVFLLKKYLMKFKGSKTKKEISEIIDKIISNLEENKYLNDEL”, the “soluble fraction (log2)” value was determined as 0.0632.
With “HMFAGEWKQDASGWWYQNDDGSFTRNGWQNISGKQYYFNENGYMLHDTTTPDGKQVGSDGSLV”, the “soluble fraction (log2)” value was 0.0661.
Then “HMNVAVPTPADKRKVRVMKADINAKLRVNDANGAYAVYEELKEWVTLKGFTEWNDDLSKLSETMGSMKRKV”, with -0.0289.
Then “HMEPMTDQQILEGFAEFKRQNPDLMNRPATQAIVNLTLPGGTPISFRSGAGAAALNQYLESIGMRAGP”, with 0.202.
Consider “HMVSKTEAMAVFIADKLQEGMVPANEILELYKGMQLSDRTIRNAKKQLGIVSIRKDGQWYWSL”, for which the “soluble fraction (log2)” value is -1.19.
Take “HMNTEFDVPDVVGKTLDEAEFVLKGSNLKRGLIMPVDDPSKAPGTIVRQNPEAGAGNKIRVGDVVDLWVVG”: the “soluble fraction (log2)” value was determined as 0.168.
On to “HMASVVEQVQVSNDISLFRQQNSPYWQARFKVAGKWYTRTTKRTEQTQAAFRAAELRSEVQTKISQGIPLR”, for which the “soluble fraction (log2)” value is -0.866.
Take “HMTSVPGTVVTNANLRGGPGTNYPIVGKAPAGTTVNVVESTADRTWYYLDTGSWIAAFLVKLS”: the “soluble fraction (log2)” value was 0.152.
